The values that follow come from paper PMC4400868.

The nature of this data set: AUC.

“Leucine-rich amelogenin protein, phosphorylated at S16 (LRAP(+P))”: the “% monomers (2.5 mM CaCl2, pH 7.4)” value was 94% monomers; the monomer % (0.78 mg/mL, 50 mM NaCl, pH 7.4) stood at 93.6%; the monomer % (0.78 mg/mL, 50 mM NaCl, pH 8.0) worked out at 92.3%; the monomer % (0.92 mg/mL, 150 mM NaCl, pH 8.0) came out at 92.6%. This substance also registered a monomer % (0.92 mg/mL, 200 mM NaCl, pH 8.0) of 97.9%; a monomer % (1.0 mg/mL, 50 mM NaCl, pH 5.8) of 84.4%; a monomer % (1.0 mg/mL, 150 mM NaCl, pH 5.8) of 90.9%; a monomer % (1.0 mg/mL, 150 mM NaCl, pH 7.4) of 93.9%. The substance also showed a monomer % (1.0 mg/mL, 200 mM NaCl, pH 5.8) of 94.5% and a monomer % (1.0 mg/mL, 200 mM NaCl, pH 7.4) of 97.7%.
